Results reported in article PMC10576031 (Proceedings of the National Academy of Sciences of the …, 2023).

How the values were obtained:
[1] = molecular target: Human wild-type tau-K18 (residues 244 to 372), monomer (Homo sapiens, wild type, 2N4R (tau-F) …, UniProt P10636-8); test: far-Western, overlay or dot blot
[2] = molecular target: tau-K18 fibrils (Homo sapiens, wild type, 2N4R (tau-F) …, UniProt P10636-8); test: far-Western, overlay or dot blot
Sequence of tau-K18 fibrils (P10636 561-689): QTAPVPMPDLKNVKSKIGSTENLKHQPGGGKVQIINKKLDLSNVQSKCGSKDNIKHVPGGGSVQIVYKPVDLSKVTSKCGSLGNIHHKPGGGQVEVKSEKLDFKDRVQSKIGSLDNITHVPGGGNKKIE

Sequence of Human wild-type tau-K18 (residues 244 to 372), monomer (P10636 561-689): as above

B1: VDW nanobody (first generation, scaffold 1) (VHH)
VHH: QVQLQESGGGLVQPGGSLRLSCAASGRTFSSYNMGWFRQAPGKGREFVASITSSGDKSDYTDSVKGRFTISRDNAKNTMYLQMNNLKPEDTATYYCARGSVWIWYEPVDWSEGTQVTVSS
[1]
  binding result: binds
[2]
  binding result: binds
